Common to all, as to format: biochemical
Data set [1] can be described thus: DMAPP assay of site evaluation library (SEL) lysates with ELISA protein quantitation: specific activity ranked as performance index. Conditions: for isoprene synthase activity of variants relative to parent, in words: SEL analysis of P. alba IspS; for performance index: primary SEL screen, activity on DMAPP per unit weight relative to the parental molecule (parent = 1). The protocol:
1. Prepared Patch Plates from Glycerol Stock Plates. Using a V&S 96 pin Replication Tool, cultures were patched onto a LB Agar 35 CMP/50 Kan large patch plates from overnight glycerol stock plates. Plates were incubated at 30° C. overnight for 20 to 24 hr. Cultures can be stored at 4° C. for up to a week.
2. Prepared Overnight Growth Plates. 500 mL of LB 35 CMP/50 Kan media were prepared. 300 μL/well of LB 35 CMP/50 Kan media were dispensed into deep 96 well plates (VWR). Using a V&S Replication Tool, the patch inoculum was transferred into deep 96 well plate by touching the tool pins to respective patch and using a circular motion to coat the pins with inoculum. The media was inoculated by dipping the tool then shaking the pin within the well. The overnight growth plates were sealed using a Breathe-Easier Sealing Membrane (Diversified Biotech). The plates were incubated in a Vertiga Shaking Incubator at 30° C. with shaking at 800 rpm overnight for 16 to 18 hr.
3. Prepared Day Growth Plate. Deep 96 well plates were prepared by dispensing 588 μL/well of LB 35 CMP/50 Kan media. Overnight growth plates were removed from the incubator. Overnight cultures were diluted 50-fold and 12 μL of overnight culture were transferred to day growth plates containing 588 μL/well of LB media containing antiobiotics. Overnight growth plates were sealed with new Breathe-Easier Sealing Membranes. Cultures were incubated at 30° C. and 800 rpm for 2.5 hr. Frozen 12 mM IPTG (Sigma) vials were removed from −20° C. and placed in a hood to thaw.
4. OD600 Plate Read of Overnight, Induction, and Harvest. 150 μL 1×PBS were dispensed into 96 well Costar Read Plates (#9017). 50 μL of culture samples were transferred to Read Plates. The OD600 reading was recorded using a Spectramax Plate Reader (Molecular Devices).
5. Induction. Electronic multi-channel pipettors were prepared to dispense 4×20 μL/well of IPTG (if 4× replicates). The multi-dispense option in the electronic pipettor was adjusted if more replicates was necessary. Thawed 12 mM IPTG was poured into 50 mL or 100 mL sterile reservoirs. 20 μL/well of IPTG into each 600 μL/well culture. Overnight growth plates were resealed. Cultures were incubated at 30° C. and 800 rpm for 4 hr. OD600 readings of plates were recorded according instructions above.
6. Harvest. 400 μL of induced culture were transferred to 800 μL Grenier storage plates. Plates were centrifuged at 3300 rpm for 20 min at 2° to 8° C. in a low speed benchtop centrifuge. Supernatants were discarded, pellets should stay in the conical bottom well. Residual supernatants were slapped out onto a paper towel on the benchtop. Plates were sealed with an aluminum foil membrane (Beckman-Coulter). Plates were covered with a plastic plate lid if available. Storage plates were labeled accordingly and stored frozen at −80° C.
Plates containing induced cell pellets were removed from the −80° C. freezer and allowed to thaw on the benchtop for 30 minutes prior to lysis. 200 μl of lysis buffer (50 mM Tris pH 8, 25 mM MgCl2, 74 μg/ml DNase I, 250 U/ml lysozyme, 0.1% Tween 20, 0.5 mM PMSF) was added to each pellet, and plates were incubated on an Eppendorf Thermomixer at 25° C. for 30 minutes at 1200 rpm. After lysis, plates were centrifuged at 3450 rpm for 15 minutes at 4° C. Supernatants were then removed and diluted 10-fold prior to DMAPP assay. 80 μl of the diluted supernatant was added to 20 μl of the DMAPP working stock (20 mM DMAPP in 0.1 M Phosphate Buffer pH 8.2, DMAPP triammonium salt, Cayman chemicals) in a Zinsser glass block. Blocks were then sealed with aluminum sealing membranes, and incubated in Thermomixers at 25° C. for 30 minutes at 450 rpm. Reactions were stopped by incubating blocks on Thermomixers at 70° C. for 12 minutes at 450 rpm. GC-MS was then used for headspace measurements to calculate the amount of isoprene produced by each lysates.
Headspace Assay. […]

Data set [2] can be described thus: Specific activity measurement of purified isoprene synthase variants (4 mM DMAPP, 30 C, GC-MS headspace). As to conditions: for S.A. / Variant S.A./WT S.A.: 50 mM NaCl, 50 mM Tris pH = 8, 30° C.; for Variant S.A./WT S.A.: ratio to WT. As to the method:
1. Initial Purification—Resuspend the pellet in 3 ml of fresh lysis buffer. Break cells by passing them through the French Press using the small cylinder. Centrifuge samples for 1 hour at 30,000×G and collect the supernatant. Retain pellet in order to test for presence of insoluble protein. Pre equilibrate 0.5 mL Ni Sepharose 6 Fast Flow resin (Amersham) in a 20 ml disposable column with 10 mL of Ni wash buffer. Add protein to column and shake for 60 min at 4 C to bind protein. Elute protein with 2.5 mL Ni elution buffer.
2. Buffer Exchange—Equilibrate a PD-10 column (GE Healthcare) with 25 mL of PD-10 buffer. Load protein on to column and elute with 3.5 mL of PD-10 buffer.
10 uL of purified enzyme was incubated with 4 mM DMAPP, 50 mM MgCl2 in a buffer containing 50 mM Tris and 50 mM NaCl (pH=8) to a final volume of 100 uL for 15 min. at 30 C in gas tight 2 mL vials. Reactions were terminated with the addition of 100 uL of […] EDTA, pH=8. Samples were analyzed by GC-MS to determine the concentration of isoprene in the headspace of the vials. All specific activity measurements were performed in triplicate.
(§1) Protein concentration was determined by measuring the absorbance of each protein solution at 280 nm on a Helwlett Pachard 8453 UV-Vis spectrophotometer and converting the absorbance to protein concentration using the extinction coefficient as determined on the Expasy website (Gasteiger E., Hoogland C., Gattiker A., Duvaud S., Wilkins M. R., Appel R. D., Bairoch A.; Protein Identification and Analysis Tools on the ExPASy Server; (In) John M. Walker (ed): The Proteomics Protocols Handbook, Humana Press (2005). pp. 571-607). The protein concentrations of isoprene synthase variants assayed for KM and kcat determination were verified by comparative gel electrophoresis of a dilution series of each protein (FIG. 61).

Data set [3] in a line: kcat, KM and Ki determination, rate vs [DMAPP], fit to uncompetitive substrate inhibition. The protocol:
10 uL of purified enzyme was incubated with DMAPP at concentrations ranging from 1.25 to 20 mM DMAPP in a buffer containing 50 mM Tris, 50 mM MgCl2 and 50 mM NaCl (pH=8) to a final volume of 100 uL for 15 min. at 30 C in gas tight 2 mL vials. Reactions were terminated with the addition of 100 uL of 250 mM EDTA, pH=8. Samples were analyzed by GC-MS to determine the concentration of isoprene in the headspace of the vials. Data were analyzed using Kaleidagraph and fit to following equation for uncompetitive substrate inhibition: rate/E=kcat*S/(KM+S*(1+S/Ki)). All kinetic assays were performed in triplicate.
as §1

Entries after “also recorded” stand apart in the source; their conditions may differ.

This note sets out measurements from patent US9175313B2, “Three-dimensional structure of isoprene synthase and its use thereof for generating variants” (Danisco US Inc., priority 2009, dated 2015).

B1: A453N: P. alba IspS variant A453N; pDW99, strain DW397, SEQ ID NO: 65 (protein)
chain: MEARRSANYEPNSWDYDYLLSSDTDESIEVYKDKAKKLEAEVRREINNEKAEFLTLLELIDNVQRLGLGYRFESDIRGALDRFVSSGGFDAVTKTSLHGTALSFRLLRQHGFEVSQEAFSGFKDQNGNFLENLKEDIKAILSLYEASFLALEGENILDEAKVFAISHLKELSEEKIGKELAEQVNHALELPLHRRTQRLEAVWSIEAYRKKEDANQVLLELAILDYNMIQSVYQRDLRETSRWWRRVGLATKLHFARDRLIESFYWAVGVAFEPQYSDCRNSVAKMFSFVTIIDDIYDVYGTLDELELFTDAVERWDVNAINDLPDYMKLCFLALYNTINEIAYDNLKDKGENILPYLTKAWADLCNAFLQEAKWLYNKSTPTFDDYFGNAWKSSSGPLQLVFAYFAVVQNIKKEEIENLQKYHDTISRPSHIFRLCNDLASASAEIARGETNNSVSCYMRTKGISEELATESVMNLIDETWKKMNKEKLGGSLFAKPFVETAINLARQSHCTYHNGDAHTSPDELTRKRVLSVITEPILPFERENLYFQGLEHHHHHH
As for B1, in data set [1], the “isoprene synthase activity of variants relative to parent, in words” value was “improved activity; also recorded: high performing” and the performance index was 2.99. Also, in data set [2], the S.A. is on record as 170 ± 30 nmol/mg/min and the “Variant S.A./WT S.A.” value is 0.4.

B2: SP: P. alba MEA G491S L494P (+) TEV; pDW110, SEQ ID NO: 87 (protein)
chain: MEARRSANYEPNSWDYDYLLSSDTDESIEVYKDKAKKLEAEVRREINNEKAEFLTLLELIDNVQRLGLGYRFESDIRGALDRFVSSGGFDAVTKTSLHGTALSFRLLRQHGFEVSQEAFSGFKDQNGNFLENLKEDIKAILSLYEASFLALEGENILDEAKVFAISHLKELSEEKIGKELAEQVNHALELPLHRRTQRLEAVWSIEAYRKKEDANQVLLELAILDYNMIQSVYQRDLRETSRWWRRVGLATKLHFARDRLIESFYWAVGVAFEPQYSDCRNSVAKMFSFVTIIDDIYDVYGTLDELELFTDAVERWDVNAINDLPDYMKLCFLALYNTINEIAYDNLKDKGENILPYLTKAWADLCNAFLQEAKWLYNKSTPTFDDYFGNAWKSSSGPLQLVFAYFAVVQNIKKEEIENLQKYHDTISRPSHIFRLCNDLASASAEIARGETANSVSCYMRTKGISEELATESVMNLIDETWKKMNKEKLSGSPFAKPFVETAINLARQSHCTYHNGDAHTSPDELTRKRVLSVITEPILPFERENLYFQGLEHHHHHH
modifications: TEV site
Regarding B2, in data set [2], the S.A. is on record as 770 ± 40 nmol/mg/min and the “Variant S.A./WT S.A.” value was 1.6. Moreover, the “specific activity compared to WT isoprene synthase, in words” value in data set [2] (30 C, purified enzyme) is recorded as “increased specific activity; also recorded: greater than the WT isoprene synthase but less than the β isoprene synthase variant”. In data set [3] (1.25 to 20 mM DMAPP, 30 C), the “KM compared to WT isoprene synthase, in words” value is listed as “less than the KM of the WT” and the “rate profile vs [DMAPP]” value is “uncompetitive substrate inhibition by DMAPP”. The Michaelis constant (Km) – broadly, the substrate concentration at which the rate is half of its maximum – in data set [3] (1.25 to 20 mM DMAPP, 30 C, average of three trials ± one standard deviation) was 4.4 ± 0.3 mM. Moreover, the kcat in data set [3] (1.25 to 20 mM DMAPP, 30 C, average of three trials ± one standard deviation, in s^-1 (unit assumed)) was found to be 1.2 ± 0.1. Besides, the Ki in data set [3] (uncompetitive substrate inhibition by DMAPP, average of three trials ± one standard deviation, read-out: KiDMAPP) came to 18 ± 1 mM.

B3: T536C: P. alba IspS variant T536C; pDW102, strain DW400, SEQ ID NO: 71 (protein)
chain: MEARRSANYEPNSWDYDYLLSSDTDESIEVYKDKAKKLEAEVRREINNEKAEFLTLLELIDNVQRLGLGYRFESDIRGALDRFVSSGGFDAVTKTSLHGTALSFRLLRQHGFEVSQEAFSGFKDQNGNFLENLKEDIKAILSLYEASFLALEGENILDEAKVFAISHLKELSEEKIGKELAEQVNHALELPLHRRTQRLEAVWSIEAYRKKEDANQVLLELAILDYNMIQSVYQRDLRETSRWWRRVGLATKLHFARDRLIESFYWAVGVAFEPQYSDCRNSVAKMFSFVTIIDDIYDVYGTLDELELFTDAVERWDVNAINDLPDYMKLCFLALYNTINEIAYDNLKDKGENILPYLTKAWADLCNAFLQEAKWLYNKSTPTFDDYFGNAWKSSSGPLQLVFAYFAVVQNIKKEEIENLQKYHDTISRPSHIFRLCNDLASASAEIARGETANSVSCYMRTKGISEELATESVMNLIDETWKKMNKEKLGGSLFAKPFVETAINLARQSHCTYHNGDAHTSPDELTRKRVLSVICEPILPFERENLYFQGLEHHHHHH
For the molecule B3, in data set [1], the “isoprene synthase activity of variants relative to parent, in words” value was “improved isoprene synthase activity; also recorded: high performing” and the performance index is on record as 1.48. In data set [2], the S.A. is 430 ± 10 nmol/mg/min and the “Variant S.A./WT S.A.” value is 0.9.
